Assay results published in patent US7019123.

Molecular target: Tissue Factor VIIa (UniProt P13726)
Assay: enzyme inhibition; Tissue Factor VIIa

B1: recombinant placental bikunin (1-170) from baculovirus/Sf9 cells (protein)
chain: ADRERSIHDFCLVSKVVGRCRASMPRWWYNVTDGSCQLFVYGGCDGNSNNYLTKEECLKKCATVTENATGDLATSRNAADSSVPSAPRRQDSEDHSSDMFNYEEYCTANAVTGPCRASFPRWYFDVERNSCNNFIYGGCRGNKNSYRSEEACMLRCFRQQENPPLPLGSK
modifications: chain 1 pos 30: Asn probably N-glycosylated (no PTH residue at cycle 30), written N; six intrachain disulfides of the two Kunitz domains
- Ki: 800 nM
